Results reported in patent publication US20250218531A1 (ABSCI, published 2025).

B1: Trastuzumab HCDR3 variant ARYGSGYYYYFDY (Fab, V domains shown)
VH: EVQLVESGGGLVQPGGSLRLSCAASGFNIKDTYIHWVRQAPGKGLEWVARIYPTNGYTRYADSVKGRFTISADTSKNTAYLQMNSLRAEDTAVYYCARYGSGYYYYFDYWGQGTLVTVSS
VL: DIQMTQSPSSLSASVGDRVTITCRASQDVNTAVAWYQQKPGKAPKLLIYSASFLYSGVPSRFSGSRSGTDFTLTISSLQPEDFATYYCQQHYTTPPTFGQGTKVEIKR
B2: Trastuzumab HCDR3 variant ARYGSSYYYYFDY (Fab, V domains shown)
VH: EVQLVESGGGLVQPGGSLRLSCAASGFNIKDTYIHWVRQAPGKGLEWVARIYPTNGYTRYADSVKGRFTISADTSKNTAYLQMNSLRAEDTAVYYCARYGSSYYYYFDYWGQGTLVTVSS
VL: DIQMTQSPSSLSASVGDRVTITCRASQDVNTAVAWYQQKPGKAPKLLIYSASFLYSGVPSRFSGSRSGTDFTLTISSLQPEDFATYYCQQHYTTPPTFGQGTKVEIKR
B3: Trastuzumab HCDR3 variant ARYGSRYYYYFDY (Fab, V domains shown)
VH: EVQLVESGGGLVQPGGSLRLSCAASGFNIKDTYIHWVRQAPGKGLEWVARIYPTNGYTRYADSVKGRFTISADTSKNTAYLQMNSLRAEDTAVYYCARYGSRYYYYFDYWGQGTLVTVSS
VL: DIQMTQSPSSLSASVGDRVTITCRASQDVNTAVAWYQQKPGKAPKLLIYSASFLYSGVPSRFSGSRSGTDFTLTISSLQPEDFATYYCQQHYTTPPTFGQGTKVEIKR
B4: Trastuzumab HCDR3 variant ARYRGYVLYDFAY (Fab, V domains shown)
VH: EVQLVESGGGLVQPGGSLRLSCAASGFNIKDTYIHWVRQAPGKGLEWVARIYPTNGYTRYADSVKGRFTISADTSKNTAYLQMNSLRAEDTAVYYCARYRGYVLYDFAYWGQGTLVTVSS
VL: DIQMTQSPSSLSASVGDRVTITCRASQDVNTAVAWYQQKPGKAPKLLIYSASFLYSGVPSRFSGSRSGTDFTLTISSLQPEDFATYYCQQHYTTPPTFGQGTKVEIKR
B5: Trastuzumab HCDR3 variant ARYGVYPFYYFDY (Fab, V domains shown)
VH: EVQLVESGGGLVQPGGSLRLSCAASGFNIKDTYIHWVRQAPGKGLEWVARIYPTNGYTRYADSVKGRFTISADTSKNTAYLQMNSLRAEDTAVYYCARYGVYPFYYFDYWGQGTLVTVSS
VL: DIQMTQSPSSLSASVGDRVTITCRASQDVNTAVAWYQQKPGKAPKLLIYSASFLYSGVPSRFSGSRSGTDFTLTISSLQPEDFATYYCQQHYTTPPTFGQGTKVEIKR
B6: Trastuzumab HCDR3 variant ARYTYFGSFDFDY (Fab, V domains shown)
VH: EVQLVESGGGLVQPGGSLRLSCAASGFNIKDTYIHWVRQAPGKGLEWVARIYPTNGYTRYADSVKGRFTISADTSKNTAYLQMNSLRAEDTAVYYCARYTYFGSFDFDYWGQGTLVTVSS
VL: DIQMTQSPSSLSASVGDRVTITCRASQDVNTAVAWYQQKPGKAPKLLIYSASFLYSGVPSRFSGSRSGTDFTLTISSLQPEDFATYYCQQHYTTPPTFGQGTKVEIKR
B7: Trastuzumab HCDR3 variant ARYSAYGLYDFAY (Fab, V domains shown)
VH: EVQLVESGGGLVQPGGSLRLSCAASGFNIKDTYIHWVRQAPGKGLEWVARIYPTNGYTRYADSVKGRFTISADTSKNTAYLQMNSLRAEDTAVYYCARYSAYGLYDFAYWGQGTLVTVSS
VL: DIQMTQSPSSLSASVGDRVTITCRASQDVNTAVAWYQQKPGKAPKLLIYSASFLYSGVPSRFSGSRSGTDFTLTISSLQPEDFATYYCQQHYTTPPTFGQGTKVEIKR
B8: Trastuzumab HCDR3 variant ARYLQLGPYYFDY (Fab, V domains shown)
VH: EVQLVESGGGLVQPGGSLRLSCAASGFNIKDTYIHWVRQAPGKGLEWVARIYPTNGYTRYADSVKGRFTISADTSKNTAYLQMNSLRAEDTAVYYCARYLQLGPYYFDYWGQGTLVTVSS
VL: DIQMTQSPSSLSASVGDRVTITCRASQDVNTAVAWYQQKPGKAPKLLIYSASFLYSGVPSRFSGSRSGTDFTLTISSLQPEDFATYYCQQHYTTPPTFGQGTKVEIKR
B9: Trastuzumab HCDR3 variant ARYGYYGPYYFDY (Fab, V domains shown)
VH: EVQLVESGGGLVQPGGSLRLSCAASGFNIKDTYIHWVRQAPGKGLEWVARIYPTNGYTRYADSVKGRFTISADTSKNTAYLQMNSLRAEDTAVYYCARYGYYGPYYFDYWGQGTLVTVSS
VL: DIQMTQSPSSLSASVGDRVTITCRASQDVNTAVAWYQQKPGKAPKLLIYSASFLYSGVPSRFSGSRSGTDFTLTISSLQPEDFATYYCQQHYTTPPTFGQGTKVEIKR
B10: Trastuzumab HCDR3 variant ARYRGVWYYDFDN (Fab, V domains shown)
VH: EVQLVESGGGLVQPGGSLRLSCAASGFNIKDTYIHWVRQAPGKGLEWVARIYPTNGYTRYADSVKGRFTISADTSKNTAYLQMNSLRAEDTAVYYCARYRGVWYYDFDNWGQGTLVTVSS
VL: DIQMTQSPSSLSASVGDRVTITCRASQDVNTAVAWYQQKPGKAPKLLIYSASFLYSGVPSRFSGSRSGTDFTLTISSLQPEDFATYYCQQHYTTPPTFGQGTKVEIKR
B11: Trastuzumab HCDR3 variant ARYSGYGLYPYAY (Fab, V domains shown)
VH: EVQLVESGGGLVQPGGSLRLSCAASGFNIKDTYIHWVRQAPGKGLEWVARIYPTNGYTRYADSVKGRFTISADTSKNTAYLQMNSLRAEDTAVYYCARYSGYGLYPYAYWGQGTLVTVSS
VL: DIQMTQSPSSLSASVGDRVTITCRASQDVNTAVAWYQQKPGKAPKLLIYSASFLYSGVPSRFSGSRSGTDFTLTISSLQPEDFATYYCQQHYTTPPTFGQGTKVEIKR
B12: Trastuzumab HCDR3 variant ARYVGLGGYPLGY (Fab, V domains shown)
VH: EVQLVESGGGLVQPGGSLRLSCAASGFNIKDTYIHWVRQAPGKGLEWVARIYPTNGYTRYADSVKGRFTISADTSKNTAYLQMNSLRAEDTAVYYCARYVGLGGYPLGYWGQGTLVTVSS
VL: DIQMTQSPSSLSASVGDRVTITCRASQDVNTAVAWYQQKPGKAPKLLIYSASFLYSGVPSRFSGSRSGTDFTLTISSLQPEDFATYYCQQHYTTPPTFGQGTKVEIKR

The binders below were run against T1, HER2 (human epidermal growth factor receptor 2) (human, UniProt P04626 23-629) (assay: SPR).
T1 construct: also called Antigen: HER2
B1 was tested, and the Kd was 15.7 nM and the “log(KD (M))” value was -7.8.
For B2, the Kd was 13.9 nM and the “log(KD (M))” value was -7.86.
In the case of B3, the Kd is reported as 15.7 nM and the “log(KD (M))” value is reported as -7.8.
B4 was tested, and the Kd was 23.1 nM and the “log(KD (M))” value was -7.64.
With B5 the Kd was 27 nM and the “log(KD (M))” value was -7.57.
With B6 the Kd was 15.8 nM and the “log(KD (M))” value was -7.8.
With B7 the Kd was 25.5 nM and the “log(KD (M))” value was -7.59.
With B8 the Kd was 14.7 nM and the “log(KD (M))” value was -7.83.
In the case of B9, the Kd is reported as 14.3 nM and the “log(KD (M))” value is reported as -7.84.
With B10 the Kd was 14.5 nM and the “log(KD (M))” value was -7.84.
B11 was tested, and the Kd was 17.4 nM and the “log(KD (M))” value was -7.76.
For B12, the Kd was 13.2 nM and the “log(KD (M))” value was -7.88.
